Values quoted from earlier work in patent US20050181456A1, “Methods for determining the amount of peptide YY in blood” (Nastech Pharmaceutical Company Inc., priority 2004, published 2005).

Biological target: T1, Y2 receptor (Homo sapiens, UniProt P49146)
T1 sequence (P49146 1-381): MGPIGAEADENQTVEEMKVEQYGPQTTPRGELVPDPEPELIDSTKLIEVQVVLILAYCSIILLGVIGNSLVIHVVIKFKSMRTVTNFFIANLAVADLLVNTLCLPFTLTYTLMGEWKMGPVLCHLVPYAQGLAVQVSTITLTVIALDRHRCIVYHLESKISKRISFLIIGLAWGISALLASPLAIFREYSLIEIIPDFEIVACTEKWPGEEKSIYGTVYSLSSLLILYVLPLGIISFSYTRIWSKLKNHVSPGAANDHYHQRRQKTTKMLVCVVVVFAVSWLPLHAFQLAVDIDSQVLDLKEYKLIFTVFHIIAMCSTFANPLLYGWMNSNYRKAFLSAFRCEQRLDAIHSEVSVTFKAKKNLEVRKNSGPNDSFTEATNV
Details: cited from earlier work

Substance: PYY fragment having only residues 22-36: PYY fragment having only residues 22-36 (ASLRHYLNLVTRQRY; listed as Homo sapiens)
- binding to the Y2 receptor: will still bind
